Test results as given in article PMC8263776, “Calmodulin-dependent KCNE4 dimerization controls membrane targeting” (Scientific Reports, 2021).

Columns and labels:
[1] = biological target: the molecule itself; experiment: cross-linking; HEK-293 lysates (50 mM boric acid, 100 mM K acetate, 2 mM MgCl2, 1 mM EGTA, 1% Triton X-100, pH 8.5) with or without 5 mM DMP for 1 h; 7% SDS-PAGE, immunoblot against CFP
[2] = biological target: the molecule itself; experiment: counting of GFP bleaching steps of single spots (TIRF microscopy); loopBAD-GFP proteins biotinylated by BirA on HEK-293 cells, immobilised through neutravidin on biotinylated glass; bleaching steps counted per spot

B1: Kv1.3-CFP (natural protein, rat, UniProt P15384 1-525, looked up)
chain: MTVVPGDHLLEPEAAGGGGGDPPQGGCVSGGGCDRYEPLPPALPAAGEQDCCGERVVINISGLRFETQLKTLCQFPETLLGDPKRRMRYFDPLRNEYFFDRNRPSFDAILYYYQSGGRIRRPVNVPIDIFSEEIRFYQLGEEAMEKFREDEGFLREEERPLPRRDFQRQVWLLFEYPESSGPARGIAIVSVLVILISIVIFCLETLPEFRDEKDYPASPSQDVFEAANNSTSGASSGASSFSDPFFVVETLCIIWFSFELLVRFFACPSKATFSRNIMNLIDIVAIIPYFITLGTELAERQGNGQQAMSLAILRVIRLVRVFRIFKLSRHSKGLQILGQTLKASMRELGLLIFFLFIGVILFSSAVYFAEADDPSSGFNSIPDAFWWAVVTMTTVGYGDMHPVTIGGKIVGSLCAIAGVLTIALPVPVIVSNFNYFYHRETEGEEQAQYMHVGSCQHLSSSAEELRKARSNSTLSKSEYMVIEEGGMNHSAFPQTPFKTGNSTATCTTNNNPNSCVNIKKIFTDV
notes: Kv1.3, rat (rKv1.3), subcloned from pRcCMV into pECFP-C1; pECFP-C1 is surmised to put CFP at the N-terminus of the insert; source: HEK-293, transfected; in lysate (cross-linking) or in fixed cells (FRET)
- stoichiometry N [1]: 4

B2: Kv1.3-loopBAD-GFP (natural protein, rat, UniProt P15384 1-525, looked up)
chain: B1 chain
modifications: biotin on the loopBAD tag (BirA co-expressed)
notes: Kv1.3, rat (rKv1.3); GFP-Kv1.3 with a loopBAD tag introduced at an NruI restriction site; source: HEK-293, electroporated with BirA, on the cell surface
- stoichiometry N [2]: 4

B3: KCNE4-loopBAD-GFP (natural protein, mouse, UniProt Q9WTW3 1-170, looked up)
chain: MLRMEPLNSTYPSAAASSSPLESHVPSNSSGNGNEYFYILVVMSFYGVFLIGIMLGYMKSKRREKKSSLLLLYKDEERLWGEAMKPLPMMSGLRSGQVPMMLNMLQESVAPALSCTLCSMEGDSVSSESSSPDVHLPIQEEGADDELEETSETPLNDSSEGSSENIHQNS
modifications: biotin on the loopBAD tag (BirA co-expressed)
notes: KCNE4, mouse (mKCNE4), UniProtKB Q9WTW3; KCNE4-GFP with a loopBAD tag introduced at an NruI restriction site; source: HEK-293, electroporated with BirA, on the cell surface
- stoichiometry N [2]: 2
